Results taken from paper PMC7513893 (Redox Biology, 2020).

Experiments:
[1] = target: ADAM17 cytoplasmic domain, wild type (ADAM17cyto^WT), recombinant (UniProt P78536 693-824); test: ELISA
[2] = target: ADAM17 cytoplasmic domain mutant F730A (ADAM17cyto^F730A), recombinant (UniProt P78536 693-824, F730A); test: ELISA
ADAM17 cytoplasmic domain mutant F730A (ADAM17cyto^F730A), recombinant, sequence (P78536 693-824 F730A): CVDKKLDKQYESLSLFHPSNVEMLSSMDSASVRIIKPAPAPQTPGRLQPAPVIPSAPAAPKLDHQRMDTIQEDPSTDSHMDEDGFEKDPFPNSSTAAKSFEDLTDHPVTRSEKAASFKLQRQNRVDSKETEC

ADAM17 cytoplasmic domain, wild type (ADAM17cyto^WT), recombinant, sequence (P78536 693-824): as the sequence (P78536 693-824 F730A) above, with A38F counted along it

- binding result [1]: binds
- binding result [2]: binds
B1: Thioredoxin-1 (Trx-1), recombinant (enzyme, human, UniProt P10599 1-105, looked up)
chain: MVKQIESKTAFQEALDAAGDKLVVVDFSATWCGPCKMIKPFFHSLSEKYSNVIFLEVDVDDCQDVASECEVKCMPTFQFFKKGQKVGEFSGANKEKLEATINELV
